In patent publication US20240124553A1 (WASHINGTON UNIVERSITY, published 2024):

Molecular target: T1, Mayaro virus (MAYV) structural proteins on infected cells (Mayaro virus)
T1 construct: whole, on cells
Assay: flow cytometry, surface staining of MAYV-infected Vero cells with serial dilutions, % binding to infected cells

B1: Mxra8-Fc (extracellular domain of mouse Mxra8 fused to mouse IgG2b Fc) (Fc fusion)
chain: SGPSGTAAASSSLVSESVVSLAAGTQAVLRCQSPRMVWTQDRLHDRQRVVHWDLSGGPGSQRRRLVDMYSAGEQRVYEPRDRDRLLLSPSAFHDGNFSLLIRAVDRGDEGVYTCNLHHHYCHLDESLAVRLEVTEDPLLSRAYWDGEKEVLVVAHGAPALMTCINRAHVWTDRHLEEAQQVVHWDRQLPGVSHDRADRLLDLYASGERRAYGPPFLRDRVSVNTNAFARGDFSLRIDELERADEGIYSCHLHHHYCGLHERRVFHLQVTEPAFEPPARASPGNGSGHSSAPSPDPTLTRGHSIINVIVPEDHTHPSGPISTINPCPPCKECHKCPAPNLEGGPSVFIFPPNIKDVLMISLTPKVTCVVVDVSEDDPDVQISWFVNNVEVHTAQTQTHREDYNSTIRVVSTLPIQHQDWMSGKEFKCKVNNKDLPSPIERTISKIKGLVRAPQVYILPPPAEQLSRKDVSLTCLVVGFNPGDISVEWTSNGHTEENYKDTAPVLDSDGSYFIYSKLNMKTSKWEKTDSFSCNVRHEGLKNYYLKKTISRSPGK
notes: also called mMxra8-Fc; mouse Mxra8-Fc
EC50 (read off the curve): ~3 ng/mL
